US20110251266

Biological target: beta-NGF (nerve growth factor) (Homo sapiens) (UniProt P01138)
Experiment: cell_activity
Settings: as SEQ30(6); 100 nM aptamer; parent 92.7%

Sequence of beta-NGF (nerve growth factor) (Homo sapiens) (P01138 122-241): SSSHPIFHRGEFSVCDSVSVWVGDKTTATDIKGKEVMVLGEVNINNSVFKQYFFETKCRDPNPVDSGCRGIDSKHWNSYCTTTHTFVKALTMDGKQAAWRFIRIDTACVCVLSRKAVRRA

**Q.** For “GGGAUAAAAAUAGAGUUUGAUAAACACCUGUAUUAAAACCC [SEQ30(6) G20A]”, which activity is on record?
**A.** The activity was 96.1 % inhibition.

**Q.** How did the activity turn out when “GGGAUAAAAAUAGAGUUUGAUAAACACCUGUAUUAAAACCC [SEQ30(6) G23A]” was run?
**A.** Its activity is 91.2 % inhibition.
